Data as given in the Human Domainome abundance scans (Beltran et al. 2025).
± gives the uncertainty stated by the source.

B1: Nucleolar transcription factor 1, residues 408 to 469; numbered along this chain, P17480 (parent)
chain: KRPVSAMFIFSEEKRRQLQEERPELSESELTRLLARMWNDLSEKKKAKYKAREAALKAQSER

Variants of: B1
Test: abundance fitness (aPCA) (normalised: wild type 0, dead -1); higher = more abundant; growth selection in yeast, the domain comes from the species named
Settings: Homo sapiens

Row | Variant | abundance fitness
1 | F10E | -0.875 ± 0.084
2 | F10C | -1.04 ± 0.17
3 | F10N | -0.562 ± 0.21
4 | F10T | -0.751 ± 0.087
5 | F10M | -0.522 ± 0.077
6 | F10A | -0.829 ± 0.067
7 | F10P | -0.677 ± 0.089
8 | F10Y | 0.039 ± 0.28
9 | F10V | -1.09 ± 0.07
10 | F10D | -1.01 ± 0.38
11 | F10Q | -0.82 ± 0.072
12 | F10L | -0.731 ± 0.071
13 | F10R | -0.88 ± 0.058
14 | F10W | -0.075 ± 0.062
15 | F10I | -0.948 ± 0.11
16 | F10K | -0.857 ± 0.1
17 | F10H | -0.258 ± 0.47
18 | F10G | -0.683 ± 0.055
19 | F10S | -0.648 ± 0.061
20 | K14A | -0.057 ± 0.061
21 | K14F | -0.034 ± 0.08
22 | K14W | -0.167 ± 0.067
23 | K14D | -0.729 ± 0.085
24 | K14Y | -0.038 ± 0.064

Row | Variant | abundance fitness
25 | K14R | -0.034 ± 0.046
26 | K14N | -0.086 ± 0.075
27 | K14Q | -0.064 ± 0.079
28 | K14E | -0.229 ± 0.079
29 | K14G | -0.238 ± 0.058
30 | K14V | -0.07 ± 0.047
31 | K14H | 0.062 ± 0.088
32 | K14P | -0.956 ± 0.092
33 | K14C | -0.319 ± 0.095
34 | K14M | -0.044 ± 0.074
35 | K14I | -0.085 ± 0.15
36 | M7W | -0.178 ± 0.046
37 | M7Y | -0.012 ± 0.086
38 | M7V | -0.058 ± 0.06
39 | Q17K | -0.094 ± 0.068
40 | Q17E | 0.002 ± 0.055
41 | Q17L | -0.034 ± 0.046
42 | Q17C | -0.211 ± 0.078
43 | Q17H | -0.091 ± 0.12
44 | Q17D | -0.112 ± 0.11
45 | Q17I | -0.201 ± 0.14
46 | Q17A | -0.081 ± 0.068
47 | Q17G | -0.038 ± 0.041
48 | E12D | -0.092 ± 0.098

Row | Variant | abundance fitness
49 | E12P | -0.738 ± 0.04
50 | E12Q | -0.13 ± 0.065
51 | E12Y | -0.251 ± 0.087
52 | E12V | -0.163 ± 0.052
53 | E12F | -0.315 ± 0.081
54 | E12I | -0.201 ± 0.1
55 | E12L | -0.182 ± 0.049
56 | E12H | -0.169 ± 0.09
57 | E12C | -0.19 ± 0.11
58 | E12K | -0.059 ± 0.065
59 | E12G | -0.175 ± 0.056
60 | E12S | -0.028 ± 0.049
61 | E12T | -0.069 ± 0.078
62 | E12W | -0.253 ± 0.059
63 | E12M | -0.089 ± 0.072
64 | E12N | -0.048 ± 0.1
65 | S11Y | 0.011 ± 0.073
66 | S11F | -0.029 ± 0.066
67 | S11W | -0.08 ± 0.056
68 | S11P | -1.16 ± 0.11
69 | S11Q | -0.027 ± 0.073
70 | S11T | -0.013 ± 0.05
71 | S11A | -0.07 ± 0.081
72 | S11L | -0.049 ± 0.049

Row | Variant | abundance fitness
73 | S11C | -0.102 ± 0.12
74 | S11V | 0.024 ± 0.049
75 | S11H | -0.146 ± 0.18
76 | S11G | -0.028 ± 0.043
77 | S11E | -0.023 ± 0.067
78 | S11R | -0.13 ± 0.043
79 | S11M | 0.093 ± 0.06
80 | I9K | -0.258 ± 0.089
81 | I9S | -0.191 ± 0.073
82 | I9P | -0.365 ± 0.079
83 | I9T | -0.217 ± 0.074
84 | I9Q | -0.202 ± 0.14
85 | I9H | -0.518 ± 0.38
86 | I9N | -0.223 ± 0.12
87 | I9F | -0.113 ± 0.15
88 | I9V | -0.131 ± 0.058
89 | I9Y | -0.181 ± 0.1
90 | I9R | -0.172 ± 0.046
91 | I9G | -0.43 ± 0.046
92 | I9D | -0.484 ± 0.091
93 | I9E | -0.38 ± 0.12
94 | I9C | -0.074 ± 0.077
95 | I9L | -0.027 ± 0.064
96 | I9A | -0.095 ± 0.068

Row | Variant | abundance fitness
97 | R16L | -0.058 ± 0.056
98 | R16I | -0.11 ± 0.13
99 | R16M | -0.024 ± 0.067
100 | R16C | -0.012 ± 0.069
101 | R16Y | -0.072 ± 0.099
102 | R16D | -0.248 ± 0.094
103 | R16H | -0.071 ± 0.07
104 | R16A | -0.027 ± 0.051
105 | R16T | -0.078 ± 0.099
106 | R16N | -0.154 ± 0.16
107 | R16V | -0.044 ± 0.053
108 | R16G | -0.037 ± 0.043
109 | R16K | -0.073 ± 0.12
110 | R16S | -0.001 ± 0.048
111 | R16F | -0.147 ± 0.1
112 | R16Q | -0.041 ± 0.066
113 | R16E | -0.106 ± 0.074
114 | R16W | -0.106 ± 0.054
115 | F8T | -0.066 ± 0.093
116 | F8Q | -0.236 ± 0.11
117 | F8M | -0.003 ± 0.053
118 | F8G | 0.029 ± 0.045
119 | F8W | -0.03 ± 0.059
120 | F8R | 0.005 ± 0.045

Row | Variant | abundance fitness
121 | F8Y | -0.001 ± 0.14
122 | F8C | -0.069 ± 0.11
123 | F8N | 0.024 ± 0.09
124 | F8P | -0.235 ± 0.061
125 | F8D | -0.023 ± 0.07
126 | F8V | -0.027 ± 0.055
127 | F8K | -0.004 ± 0.07
128 | F8S | -0.039 ± 0.053
129 | F8A | -0.092 ± 0.12
130 | F8E | 0.02 ± 0.07
131 | F8I | -0.02 ± 0.1
132 | E13T | -0.167 ± 0.089
133 | E13R | -0.207 ± 0.059
134 | E13G | -0.22 ± 0.043
135 | E13L | -0.277 ± 0.063
136 | E13P | -0.663 ± 0.074
137 | E13C | -0.175 ± 0.067
138 | E13D | -0.04 ± 0.1
139 | E13Y | -0.29 ± 0.23
140 | E13M | -0.124 ± 0.071
141 | E13H | -0.22 ± 0.19
142 | E13W | -0.355 ± 0.054
143 | E13V | -0.187 ± 0.079
144 | E13I | -0.177 ± 0.16

Row | Variant | abundance fitness
145 | E13N | -0.344 ± 0.14
146 | E13F | -0.359 ± 0.13
147 | E13K | -0.106 ± 0.073
148 | E13A | -0.205 ± 0.051
149 | R15T | -0.23 ± 0.077
150 | R15N | -0.427 ± 0.08
151 | R15G | -0.153 ± 0.043
152 | R15S | -0.121 ± 0.05
153 | R15Q | -0.267 ± 0.13
154 | R15M | -0.19 ± 0.11
155 | R15Y | -0.243 ± 0.16
156 | R15L | -0.168 ± 0.043
157 | R15P | -1.28 ± 0.15
158 | R15E | -0.279 ± 0.063
159 | R15V | -0.29 ± 0.052
160 | R15F | -0.111 ± 0.06
161 | R15I | -0.209 ± 0.094
162 | R15C | -0.218 ± 0.071
163 | R15D | -1.2 ± 0.25
164 | R15K | 0.035 ± 0.078
165 | R15W | -0.295 ± 0.096
166 | R15A | -0.201 ± 0.051
167 | R15H | -0.411 ± 0.2
